B1: HDV Ribozyme (parent)
chain: GGCCGGCAUGGUCCCAGCCUCCUCGCUGGCGCCGGCUGGGCAACAUUCCGAGGGGACCGUCCCCUCGGUAAUGGCGAAUGGGACCCA

Variants of B1 are the subject of this data set. Briefly: self-cleavage, relative activity (ratio to wild type); higher = more cleavage; co-transcriptional.
As for GGCCGGCAUGGUCCCAGCCUCCUCGCUGGCGCCGGCUGGGCAACAUUCCGAGGGGACCAUCCCCUCGGUAAUGGCGAAUGGUACCCA [G59A G82U], the self-cleavage stood at 0.467. In the case of GGCCGGCAUGGUCCCAGCCUCCUCGCUGGCGCCGGCUGGGCAACAUUCCGAGGGGACCAUCCCGUCGGUAAUGGCGAAUGGGACCCA [G59A C64G] it was 0.831. Then GGCCGGCAUGGUCCCAGCCUCCUCGCUGGCGCCGGCUGGGCAACAUUCCGAGGGGACCAUCCCUUCGGUAAUGGCGAAUGGGACCCA [G59A C64U], with 0.903; and GGCCGGCAUGGUCCCAGCCUCCUCGCUGGCGCCGGCUGGGCAACAUUCCGAGGGGACCAUCCCCUCGGUAAUGGCAAAUGGGACCCA [G59A G76A], with 1.07.

Take GGCCGGCAUGGUCCCAGCCUCCUCGCUGGCGCCGGCUGGGCAACAUUCCGAGGGGACCAUCCUCUCGGUAAUGGCGAAUGGGACCCA [G59A C63U]: the self-cleavage was found to be 1.13. Then GGCCGGCAUGGUCCCAGCCUCCUCGCUGGCGCCGGCUGGGCAACAUUCCGAGGGGACCAUCCGCUCGGUAAUGGCGAAUGGGACCCA [G59A C63G], with 0.805.

Consider GGCCGGCAUGGUCCCAGCCUCCUCGCUGGCGCCGGCUGGGCAACAUUCCGAGGGGACCAUCCCCUCGGUAAUGGCGAAUGGGACCCU [G59A A87U], for which the self-cleavage came to 0.974. In the case of GGCCGGCAUGGUCCCAGCCUCCUCGCUGGCGCCGGCUGGGCAACAUUCCGAGGGGACCAUCCCCUCGGUAAUGGCGACUGGGACCCA [G59A A78C] it was 0.282; in that of GGCCGGCAUGGUCCCAGCCUCCUCGCUGGCGCCGGCUGGGCAACAUUCCGAGGGGACCCUCCCCUCGGUAAUGGCGAUUGGGACCCA [G59C A78U], 0.155; in that of GGCCGGCAUGGUCCCAGCCUCCUCGCUGGCGCCGGCUGGGCAACAUUCCGAGGGGACCAUCCCCUCGGUAACGGCGAAUGGGACCCA [G59A U72C], 0.607. In the case of GGCCGGCAUGGUCCCAGCCUCCUCGCUGGCGCCGGCUGGGCAACAUUCCGAGGGGACUGUCCCCACGGUAAUGGCGAAUGGGACCCA [C58U U65A] it was 1.17; in that of GGCCGGCAUGGUCCCAGCCUCCUCGCUGGCGCCGGCUGGGCAACAUUCCGAGGGGACCAUCCCCUCGGUAUUGGCGAAUGGGACCCA [G59A A71U], 0.929. For the variant GGCCGGCAUGGUCCCAGCCUCCUCGCUGGCGCCGGCUGGGCAACAUUCCGAGGGGACCAUCCCCUCGGUAGUGGCGAAUGGGACCCA [G59A A71G], the self-cleavage turned out to be 0.984. On to GGCCGGCAUGGUCCCAGCCUCCUCGCUGGCGCCGGCUGGGCAACAUUCCGAGGGGACCAUCCCCUCGGUAAUGGCGUAUGGGACCCA [G59A A77U], for which the self-cleavage came out at 0.574.

Take GGCCGGCAUGGUCCCAGCCUCCUCGCUGGCGCCGGCUGGGCAACAUUCCGAGGGGACCAUCCCCUCCGUAAUGGCGAAUGGGACCCA [G59A G67C]: the self-cleavage stood at 1.05. Consider GGCCGGCAUGGUCCCAGCCUCCUCGCUGGCGCCGGCUGGGCAACAUUCCGAGGGGACCAUCCCCUCGGUAAUUGCGAAUGGGACCCA [G59A G73U], for which the self-cleavage came out at 0.267. In the case of GGCCGGCAUGGUCCCAGCCUCCUCGCUGGCGCCGGCUGGGCAACAUUCCGAGGGGACCAUCCCCUCGGUAAUGGCGAAUGGGACUCA [G59A C85U] it was 0.796. As to GGCCGGCAUGGUCCCAGCCUCCUCGCUGGCGCCGGCUGGGCAACAUUCCGAGGGGACCAUCUCCUCGGUAAUGGCGAAUGGGACCCA [G59A C62U], the self-cleavage is 1.22. Then GGCCGGCAUGGUCCCAGCCUCCUCGCUGGCGCCGGCUGGGCAACAUUCCGAGGGGACUGUCCCCUCGGCAAUGGCGAAUGGGACCCA [C58U U69C], with 0.95; and GGCCGGCAUGGUCCCAGCCUCCUCGCUGGCGCCGGCUGGGCAACAUUCCGAGGGGACUGUCCCCUCGGUAAUGGCGAAUGGUACCCA [C58U G82U], with 0.34. On to GGCCGGCAUGGUCCCAGCCUCCUCGCUGGCGCCGGCUGGGCAACAUUCCGAGGGGACCCUCCCCUCGGUGAUGGCGAAUGGGACCCA [G59C A70G], for which the self-cleavage stood at 1.06. In the case of GGCCGGCAUGGUCCCAGCCUCCUCGCUGGCGCCGGCUGGGCAACAUUCCGAGGGGACCAUCCCCUCGGUAAUGGCGAAAGGGACCCA [G59A U79A] it was 0.884; in that of GGCCGGCAUGGUCCCAGCCUCCUCGCUGGCGCCGGCUGGGCAACAUUCCGAGGGGACCAUCCCCUCGGUAAUGGCGAACGGGACCCA [G59A U79C], 0.518. GGCCGGCAUGGUCCCAGCCUCCUCGCUGGCGCCGGCUGGGCAACAUUCCGAGGGGACUGUCCCCUCGGUAAUGGCGAACGGGACCCA [C58U U79C]: the self-cleavage was 0.38. GGCCGGCAUGGUCCCAGCCUCCUCGCUGGCGCCGGCUGGGCAACAUUCCGAGGGGACUGUCCCCUCGGUAAUGGCGAAGGGGACCCA [C58U U79G]: the self-cleavage worked out at 0.612.

As to GGCCGGCAUGGUCCCAGCCUCCUCGCUGGCGCCGGCUGGGCAACAUUCCGAGGGGACCAUCCCCUCGGUAAUGGCGAAUGGGACCCA [G59A], the self-cleavage was 1.02.

For the variant GGCCGGCAUGGUCCCAGCCUCCUCGCUGGCGCCGGCUGGGCAACAUUCCGAGGGGACCCUCCCCUCGGUAAUGGCGAAUGGGACCCA [G59C], the self-cleavage is 1.01. As for GGCCGGCAUGGUCCCAGCCUCCUCGCUGGCGCCGGCUGGGCAACAUUCCGAGGGGACCAUCCCCUCGGUAAUGGCGAAUGAGACCCA [G59A G81A], the self-cleavage was determined as 0.472.

Regarding GGCCGGCAUGGUCCCAGCCUCCUCGCUGGCGCCGGCUGGGCAACAUUCCGAGGGGACCAUCCCCUCGGUAAUGGCGAAUGGGAGCCA [G59A C84G], the self-cleavage worked out at 0.597. In the case of GGCCGGCAUGGUCCCAGCCUCCUCGCUGGCGCCGGCUGGGCAACAUUCCGAGGGGACCAUCCCCUCGGGAAUGGCGAAUGGGACCCA [G59A U69G] it was 1; in that of GGCCGGCAUGGUCCCAGCCUCCUCGCUGGCGCCGGCUGGGCAACAUUCCGAGGGGACCAUCCCCUCGGAAAUGGCGAAUGGGACCCA [G59A U69A], 1.08. Then GGCCGGCAUGGUCCCAGCCUCCUCGCUGGCGCCGGCUGGGCAACAUUCCGAGGGGACCAUCCCCUCGGUAAUGCCGAAUGGGACCCA [G59A G74C], with 0.198.

(Values after the RNAGym collection of RNA variant scans (doi:10.7554/elife.80360).)
